Laboratory results taken from publication PMC8371321, “A Novel Z-Ring Associated Protein ZapA-Like Protein (PA5407) From Pseudomonas aeruginosa Promotes FtsZ to Form Double Filaments” (Frontiers in Microbiology, 2021).

T1: FtsZ from Pseudomonas aeruginosa (P. aeruginosa, UniProt P47204 1-394)
T1 construct: FtsZ, Pseudomonas aeruginosa; pET15b containing the entire ftsZ gene (NdeI/BamHI); His6 tag removed with thrombin; The construct is from Chen et al., 2012; Residues of the vector may be left after the thrombin cut; Forms protofilaments with GTP; also called PaFtsZ; source: E. coli BL21(DE3), purified (Talon column, thrombin, source Q column)
T1 sequence (looked up): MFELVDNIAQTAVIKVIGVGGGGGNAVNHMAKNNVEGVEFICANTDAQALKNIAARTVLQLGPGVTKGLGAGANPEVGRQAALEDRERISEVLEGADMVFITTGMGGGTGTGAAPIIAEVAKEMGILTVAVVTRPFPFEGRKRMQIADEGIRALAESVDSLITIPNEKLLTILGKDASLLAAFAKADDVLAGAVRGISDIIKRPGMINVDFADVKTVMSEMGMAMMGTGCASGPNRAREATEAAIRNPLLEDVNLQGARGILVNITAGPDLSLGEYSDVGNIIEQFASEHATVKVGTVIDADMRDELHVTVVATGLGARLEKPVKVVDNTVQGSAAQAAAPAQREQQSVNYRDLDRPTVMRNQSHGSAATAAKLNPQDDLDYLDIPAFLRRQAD

B1: ZapA (PA5227) from Pseudomonas aeruginosa (natural protein, P. aeruginosa, UniProt Q9HTW3 1-104, looked up)
chain: MSQSNTLTVQILDKEYCINCPDDERANLESAARYLDGKMREIRSSGKVIGADRVAVMAALNITHDLLHRKERLDQESSSTRERVRELLDRVDRALANPADAGEA
notes: pET15b containing the entire zapA gene (NdeI/BamHI); The construct is from Rahman et al., 2020; Stored and used with the His6 tag; also called PA5207; source: E. coli BL21(DE3), purified (Talon column)
B2: ZapA-Like protein (ZapAL; PA5407) from Pseudomonas aeruginosa (natural protein, P. aeruginosa, UniProt Q9HTF7 1-96, looked up)
chain: MSRDGVQVLSILGRDYSIRVPAGEERALADAAALLQAEVDANKRKFPYVTSNELVVLSALNLCARQLGANDGESPRLRAVEQRLEALVERIAGASG
notes: ZapA-Like protein ZapAL (PA5407), Pseudomonas aeruginosa, 96 amino acids; pET15b containing the entire zapAL gene (NdeI/BamHI); Stored and used with the His6 tag; also called ZapL; source: E. coli BL21(DE3), purified (Talon column)

Key:
[1] = molecular target: T1, FtsZ from Pseudomonas aeruginosa; test: light scattering; FtsZ with ZapAL, ZapA or a 1:1 mixture of both, mixed with 1 mM or 0.1 mM GTP, HMK buffer (50 mM HEPES pH 7.5, 5 mM MgAc, 100 mM KAc), room temperature, 340 nm; details: both partners purified
[2] = molecular target: T1, FtsZ from Pseudomonas aeruginosa; test: co-sedimentation; 15 uM FtsZ with 15 or 30 uM ZapAL, 1 mM GTP, 10 min at room temperature, 80,000 rpm for 30 min at 25 C (Beckman TLA100); pellet and supernatant by SDS-PAGE and ImageJ; details: both partners purified

| Binder | binding result [1] | stoichiometry N [2] |
| --- | --- | --- |
| B1 | binds | – |
| B2 | – | ~1 FtsZ:ZapAL (molar ratio) |
